Earlier results on one sequence are cited in publication doi:10.1101/2023.08.17.553741.

pKd: −log10 of the molar value.

This series addresses SARS-CoV-2 spike protein (target of cited Kd) (SARS-CoV-2) (UniProt P0DTC2). Conditions: 3' thiol C3, […] (temperature not stated), PBS 1X.

By pKd is commonly meant the Kd on a negative log10 scale, so that one unit is a factor of ten. On to “TTCCGGTTAATTTATGCTCTACCCGTCCACCTACCGGAATTTTTTTTTTTTTTTTTTTTACGGGTTTGGCGTCGGGCCTGGCGGGGGGATAGTGCGGT [dimeric aptamer (S1-20T-S2-thiolC3)]”, for which the pKd is 9.77.
